Source: patent US20040223970A1 (published 2004)

Molecular target: T1, SLC15A2 (Solute carrier family 15 (H+/peptide transporter), member 2) (human, UniProt Q16348 1-729)
T1 construct: Expressed from its cDNA on stably transfected 3T12 and Calu6 cells (FACS, saporin killing), and endogenous in human prostate sections (IHC); also called SLC15A2 protein; SLCA15A2
T1 sequence: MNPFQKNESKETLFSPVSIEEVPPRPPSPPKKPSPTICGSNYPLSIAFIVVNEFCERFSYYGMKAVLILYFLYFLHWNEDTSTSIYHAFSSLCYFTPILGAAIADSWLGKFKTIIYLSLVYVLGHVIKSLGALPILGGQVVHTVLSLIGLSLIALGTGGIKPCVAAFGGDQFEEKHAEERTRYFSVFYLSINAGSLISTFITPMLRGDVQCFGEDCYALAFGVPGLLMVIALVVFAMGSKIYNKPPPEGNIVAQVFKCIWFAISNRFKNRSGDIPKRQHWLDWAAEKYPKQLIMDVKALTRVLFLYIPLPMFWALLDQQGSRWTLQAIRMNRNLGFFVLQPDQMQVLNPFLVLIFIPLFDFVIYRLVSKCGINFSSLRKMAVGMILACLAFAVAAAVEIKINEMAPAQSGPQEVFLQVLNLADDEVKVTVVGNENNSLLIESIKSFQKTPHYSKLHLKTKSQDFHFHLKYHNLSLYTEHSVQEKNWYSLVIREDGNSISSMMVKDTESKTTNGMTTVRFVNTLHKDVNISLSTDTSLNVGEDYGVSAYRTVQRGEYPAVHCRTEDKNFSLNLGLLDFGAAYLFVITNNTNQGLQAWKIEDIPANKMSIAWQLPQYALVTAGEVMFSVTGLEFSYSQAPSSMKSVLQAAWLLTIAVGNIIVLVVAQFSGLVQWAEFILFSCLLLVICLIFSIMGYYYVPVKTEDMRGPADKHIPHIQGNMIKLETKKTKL
Assay: FACS, hybridoma supernatant on SLC15A2 expressing cells

| Binder | binding result |
| --- | --- |
| PDO5 #810 monoclonal antibody (antibody, V domains shown, also called clone 810; Clone 810 supernatant) VH: EVQLQQSGPELVKPGASMKISCKASGYSFTGYTMNWVKQSHGKNLEWIGLINPYNGGINYNQKFKGKATLTVDKSSSTAYMELLSLTSEDSAVYYCTRRAYYGNYGTMDYWGQGTSVTVSS VL: ENVLTQSPASMSASPGEKVTMTCSASSSVSYMHWYQQKSTTSPKLWIYDTSNLASGVPGRFSGSGSGNSYSLTISNMEAEDVATYYCFQGSGYPLTFGAGTKLELKR | binds |
| PDO5 #811 monoclonal antibody (antibody, V domains shown, Mouse monoclonal antibody from a hybridoma, used as hybridoma supernatant; also called clone 811) VH: QVQLQQPGAELVRPGASVKLSCKASGYTFTSYWLNWVRQRPGQGLEWIGMIDPSDSETHYNQMFKDKATLTVDKSSSTAYMQLSSLTSEDSAVYYCTSQGVPVPFDYWGQGTTLTVSS VL: DVVMTQTPLSLPVSLGDQASISCRSSQSLVHSNGNTYLHWYLQKPGQSPKLLIYRVSNRFSGVPDRFSGSGSGTDFTLKISRVEAEDLGVYFCSQSTHVPWTFGGGTKLEIKR | binds |
